Assay results: publication PMC2775897

Target: axonemes (purified from sea urchin sperm flagella) (sea urchin)
Test: single-molecule fluorescence microscopy

**Q.** For “DNA-kinesin monomer K336 333C_10 bp (from UniProt P33176 1-336)”, which dwell time is on record?
**A.** 170 ms
